{"source": "paper PMC4246237", "origin": "cited, not measured here", "key": {"AVP (Human adenovirus 2) [1]": {"molecular_target": "AVP (Human adenovirus 2) (UniProt P03252)", "sequence (P03252 whole entry)": "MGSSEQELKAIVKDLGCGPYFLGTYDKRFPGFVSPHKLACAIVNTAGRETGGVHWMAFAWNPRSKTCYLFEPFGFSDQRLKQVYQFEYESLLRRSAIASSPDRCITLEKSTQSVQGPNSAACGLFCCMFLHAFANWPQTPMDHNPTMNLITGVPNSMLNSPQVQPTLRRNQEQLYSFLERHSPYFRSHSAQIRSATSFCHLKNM"}, "AVP (Human adenovirus 2) [2]": {"molecular_target": "AVP (Human adenovirus 2) (UniProt P03252)", "remark": "listed apart in the source"}}, "note": "Like-named read-outs stand apart in the source and are kept apart here."}
{"substance": "pVIc pVIc (from UniProt P03274)", "values": [{"measurement": "Kd", "setting": "AVP (Human adenovirus 2) [1]", "value": 4400, "unit": "nM"}, {"measurement": "Kd", "setting": "AVP (Human adenovirus 2) [2]", "value": 90, "unit": "nM"}]}
